Data as given in US20260234252A1 (Janssen / Centocor, published 2026).
Where “and” joins values, the source holds several entries; their conditions need not be identical. Identical values can stand only once.

B1: VB11 (anti-Vβ17/anti-CD123) bispecific antibody (bispecific antibody, human IgG4 S228P, kappa, F234A L235A)
heavy 1: QVQLQESGPGLVKPSETLSLTCTVSGYSITSGYFWNWIRQPPGKGLEWIGYISYDGSNNYNPSLKSRVTISRDTSKNQFSLKLSSVTAADTAVYYCASPSPGTGYAVDYWGQGTLVTVSSASTKGPSVFPLAPCSRSTSESTAALGCLVKDYFPEPVTVSWNSGALTSGVHTFPAVLQSSGLYSLSSVVTVPSSSLGTKTYTCNVDHKPSNTKVDKRVESKYGPPCPPCPAPEAAGGPSVFLFPPKPKDTLMISRTPEVTCVVVDVSQEDPEVQFNWYVDGVEVHNAKTKPREEQFNSTYRVVSVLTVLHQDWLNGKEYKCKVSNKGLPSSIEKTISKAKGQPREPQVYTLPPSQEEMTKNQVSLSCAVKGFYPSDIAVEWESNGQPENNYKTTPPVLDSDGSFFLVSRLTVDKSRWQEGNVFSCSVMHEALHNRFTQKSLSLSLGK
light 1: DIQMTQSPSSLSASVGDRVTITCRSSQSLVHSNGNTYLHWYQQKPGKAPKFLIYKVSNRFSGVPSRFSGSGSGTDFTLTISSLQPEDFATYYCSQSTHVPFTFGQGTKLEIKRTVAAPSVFIFPPSDEQLKSGTASVVCLLNNFYPREAKVQWKVDNALQSGNSQESVTEQDSKDSTYSLSSTLTLSKADYEKHKVYACEVTHQGLSSPVTKSFNRGEC
heavy 2: EVQLVQSGAEVKKPGESLKISCKGSGYSFTSYWISWVRQMPGKGLEWMGIIDPSDSDTRYSPSFQGQVTISADKSISTAYLQWSSLKASDTAMYYCARGDGSTDLDYWGQGTLVTVSSASTKGPSVFPLAPCSRSTSESTAALGCLVKDYFPEPVTVSWNSGALTSGVHTFPAVLQSSGLYSLSSVVTVPSSSLGTKTYTCNVDHKPSNTKVDKRVESKYGPPCPPCPAPEAAGGPSVFLFPPKPKDTLMISRTPEVTCVVVDVSQEDPEVQFNWYVDGVEVHNAKTKPREEQFNSTYRVVSVLTVLHQDWLNGKEYKCKVSNKGLPSSIEKTISKAKGQPREPQVYTLPPSQEEMTKNQVSLWCLVKGFYPSDIAVEWESNGQPENNYKTTPPVLDSDGSFFLYSRLTVDKSRWQEGNVFSCSVMHEALHNHYTQKSLSLSLGK
light 2: EIVLTQSPGTLSLSPGERATLSCRASQSVSSSYLAWYQQKPGQAPRLLIYGASSRATGIPDRFSGSGSGTDFTLTISRLEPEDFAVYYCQQDYGFPWTFGQGTKVEIKRTVAAPSVFIFPPSDEQLKSGTASVVCLLNNFYPREAKVQWKVDNALQSGNSQESVTEQDSKDSTYSLSSTLTLSKADYEKHKVYACEVTHQGLSSPVTKSFNRGEC
notes: also called Vβ17 and CD123 bispecific
B2: VB13 (Vβ17×Null) bispecific antibody (bispecific antibody, human IgG4 S228P, kappa, F234A L235A)
heavy 1: B1 heavy 1
light 1: B1 light 1
heavy 2: not shown
light 2: not shown
notes: also called Vβ17XNULL; Vβ17 x Null

Biological target: T1, Vβ17 on human CD8+ T cells (human)
T1 construct: whole, on cells; Polyclonal donor T cells; also called Vβ17+ CD8+ T cells; M1-stimulated T-cells
T1 sequence (A0A075B6N1 22-114): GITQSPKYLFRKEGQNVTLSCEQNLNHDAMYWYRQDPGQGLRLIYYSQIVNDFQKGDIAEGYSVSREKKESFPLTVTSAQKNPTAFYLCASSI
Test: flow cytometry on FLU MP 58 stimulated CD8+ T cells, anti-human IgG4 Fc-PE
Experimental: Mouse anti-human IgG4 Fc-PE secondary antibody was used to detect the bispecific antibody.
Bispecific antibody binding affinities to CD8+ T cell were determined by flow cytometry.

| Binder | EC50 |
| --- | --- |
| B1 | 1.35 µg/mL and 9 nM |
| B2 | 2.8 µg/mL and 18.7 nM |
